We go through one molecule from doi:10.1101/2023.01.21.525003 (bioRxiv, 2023).

For this experiment, the target named is Gluc-LHCGRv4 (Gaussia luciferase fused to the N-terminus of the luteinizing hormone/chorionic gonadotropin … (human, UniProt P22888 27-699)). Briefly: FRET or BRET. On the technique in general: Bioluminescence resonance energy transfer reports proximity on the nanometre scale.
Gluc-LHCGRv4 (Gaussia luciferase fused to the N-terminus of the luteinizing hormone/chorionic gonadotropin …, sequence (P22888 27-699): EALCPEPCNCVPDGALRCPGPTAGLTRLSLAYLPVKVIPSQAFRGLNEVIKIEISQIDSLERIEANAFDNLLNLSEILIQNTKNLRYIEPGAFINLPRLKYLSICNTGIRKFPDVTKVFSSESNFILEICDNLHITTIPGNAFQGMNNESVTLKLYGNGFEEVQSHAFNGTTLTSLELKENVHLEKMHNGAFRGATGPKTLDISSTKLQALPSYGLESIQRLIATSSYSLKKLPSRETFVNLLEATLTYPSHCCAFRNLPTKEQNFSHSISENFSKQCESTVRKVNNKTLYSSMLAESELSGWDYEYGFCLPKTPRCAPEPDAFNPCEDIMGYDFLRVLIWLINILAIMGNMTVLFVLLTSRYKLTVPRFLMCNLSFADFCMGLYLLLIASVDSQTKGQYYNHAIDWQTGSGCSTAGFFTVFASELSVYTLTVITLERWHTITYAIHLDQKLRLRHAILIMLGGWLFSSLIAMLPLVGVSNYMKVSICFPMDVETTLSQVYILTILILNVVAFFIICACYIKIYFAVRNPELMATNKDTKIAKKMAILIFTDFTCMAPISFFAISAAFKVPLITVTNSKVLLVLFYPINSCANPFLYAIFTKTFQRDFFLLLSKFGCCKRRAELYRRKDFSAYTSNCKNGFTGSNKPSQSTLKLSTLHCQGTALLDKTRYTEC

B1: LHB^WT-eGFP/CGA (luteinizing hormone: LH beta subunit fused to eGFP, co-expressed with the common glycoprotein alpha subunit) (complex)
chain 1: SREPLRPWCHPINAILAVEKEGCPVCITVNTTICAGYCPTMMRVLQAVLPPLPQVVCTYRDVRFESIRLPGCPRGVDPVVSFPVALSCRCGPCRRSTSDCGGPKDHPLTCDHPQLSGLLFL
chain 2: not shown
For B1, the “BRET ratio, fold over stimulation with unlabeled hormone” value was found to be 4 fold.
